Measured values: US20110118181A1 (INSTITUT DE RECHERHES CLINIQUES DE MONTREAL, published 2011)

Target: T1, PCSK9-V5 (full-length human PCSK9 with C-terminal V5 tag) (human, UniProt Q8NBP7 31-692)
T1 construct: Used as conditioned medium of CHO-K1 cells (Far Western, pull-down) or co-expressed in cells (co-IP); The background says PCSK9 is secreted as a prosegment-PCSK9 heterodimer; also called full-length (FL) PCSK9-V5; native PCSK9; not shown: C-terminal V5 tag
Test: Far Western blot of HEK293 lysates

T1 sequence (Q8NBP7 31-692 limits assumed): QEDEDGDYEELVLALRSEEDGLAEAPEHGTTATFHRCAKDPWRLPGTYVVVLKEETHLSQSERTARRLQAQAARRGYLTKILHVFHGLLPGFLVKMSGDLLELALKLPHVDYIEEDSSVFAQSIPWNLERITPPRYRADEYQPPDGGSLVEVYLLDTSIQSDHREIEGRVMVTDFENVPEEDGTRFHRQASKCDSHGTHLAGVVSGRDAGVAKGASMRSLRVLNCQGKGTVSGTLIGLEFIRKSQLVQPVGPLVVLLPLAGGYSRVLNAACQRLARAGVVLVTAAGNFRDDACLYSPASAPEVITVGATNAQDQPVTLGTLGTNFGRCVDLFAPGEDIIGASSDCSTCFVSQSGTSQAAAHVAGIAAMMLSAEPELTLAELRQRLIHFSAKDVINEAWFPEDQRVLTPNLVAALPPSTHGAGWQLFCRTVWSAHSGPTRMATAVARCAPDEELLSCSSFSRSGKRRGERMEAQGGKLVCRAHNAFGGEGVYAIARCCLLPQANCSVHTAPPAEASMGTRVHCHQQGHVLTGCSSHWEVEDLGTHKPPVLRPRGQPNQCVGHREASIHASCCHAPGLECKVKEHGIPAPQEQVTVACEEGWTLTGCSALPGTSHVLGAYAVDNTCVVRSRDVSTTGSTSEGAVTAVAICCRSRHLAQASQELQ

B1: AnxA2 77RRTKK>AATAA (HA-tagged) (other)
chain: MSTVHEILCKLSLEGDHSTPPSAYGSVKAYTNFDAERDALNIETAIKTKGVDEVTIVNILTNRSNAQRQDIAFAYQAATAAELASALKSALSGHLETVILGLLKTPAQYDASELKASMKGLGTDEDSLIEIICSRTNQELQEINRVYKEMYKTDLEKDIISDTSGDFRKLMVALAKGRRAEDGSVIDYELIDQDARDLYDAGVKRKGTDVPKWISIMTERSVPHLQKVFDRYKSYSPYDMLESIRKEVKGDLENAFLNLVQCIQNKPLYFADRLYDSMKGKGTRDKVLIRIMVSRSEVDMLKIRSEFKRKYGKSLYYYIQQDTKGDYQKALLYLCGGDDYPYDVPDYA
notes: also called 77AATAA81
B1: no binding.

B2: AnxA2 77RRTKK>AATAK (HA-tagged) (other)
chain: MSTVHEILCKLSLEGDHSTPPSAYGSVKAYTNFDAERDALNIETAIKTKGVDEVTIVNILTNRSNAQRQDIAFAYQAATAKELASALKSALSGHLETVILGLLKTPAQYDASELKASMKGLGTDEDSLIEIICSRTNQELQEINRVYKEMYKTDLEKDIISDTSGDFRKLMVALAKGRRAEDGSVIDYELIDQDARDLYDAGVKRKGTDVPKWISIMTERSVPHLQKVFDRYKSYSPYDMLESIRKEVKGDLENAFLNLVQCIQNKPLYFADRLYDSMKGKGTRDKVLIRIMVSRSEVDMLKIRSEFKRKYGKSLYYYIQQDTKGDYQKALLYLCGGDDYPYDVPDYA
notes: also called 77AATAK81
B2: no binding.

B3: AnxA2 77…>77AATAAELASALA (HA-tagged) (other)
chain: MSTVHEILCKLSLEGDHSTPPSAYGSVKAYTNFDAERDALNIETAIKTKGVDEVTIVNILTNRSNAQRQDIAFAYQAATAAELASALASALSGHLETVILGLLKTPAQYDASELKASMKGLGTDEDSLIEIICSRTNQELQEINRVYKEMYKTDLEKDIISDTSGDFRKLMVALAKGRRAEDGSVIDYELIDQDARDLYDAGVKRKGTDVPKWISIMTERSVPHLQKVFDRYKSYSPYDMLESIRKEVKGDLENAFLNLVQCIQNKPLYFADRLYDSMKGKGTRDKVLIRIMVSRSEVDMLKIRSEFKRKYGKSLYYYIQQDTKGDYQKALLYLCGGDDYPYDVPDYA
B3: no binding.

B4: AnxA2 80KKELA>GKPLD (HA-tagged) (other)
chain: MSTVHEILCKLSLEGDHSTPPSAYGSVKAYTNFDAERDALNIETAIKTKGVDEVTIVNILTNRSNAQRQDIAFAYQRRTGKPLDSALKSALSGHLETVILGLLKTPAQYDASELKASMKGLGTDEDSLIEIICSRTNQELQEINRVYKEMYKTDLEKDIISDTSGDFRKLMVALAKGRRAEDGSVIDYELIDQDARDLYDAGVKRKGTDVPKWISIMTERSVPHLQKVFDRYKSYSPYDMLESIRKEVKGDLENAFLNLVQCIQNKPLYFADRLYDSMKGKGTRDKVLIRIMVSRSEVDMLKIRSEFKRKYGKSLYYYIQQDTKGDYQKALLYLCGGDDYPYDVPDYA
notes: also called 80KKELA84 replaced with AnxA1 loop 89GKPLD93
B4: binds.

B5: AnxA2 K28S+D34N+E36S (HA-tagged) (other)
chain: MSTVHEILCKLSLEGDHSTPPSAYGSVSAYTNFNASRDALNIETAIKTKGVDEVTIVNILTNRSNAQRQDIAFAYQRRTKKELASALKSALSGHLETVILGLLKTPAQYDASELKASMKGLGTDEDSLIEIICSRTNQELQEINRVYKEMYKTDLEKDIISDTSGDFRKLMVALAKGRRAEDGSVIDYELIDQDARDLYDAGVKRKGTDVPKWISIMTERSVPHLQKVFDRYKSYSPYDMLESIRKEVKGDLENAFLNLVQCIQNKPLYFADRLYDSMKGKGTRDKVLIRIMVSRSEVDMLKIRSEFKRKYGKSLYYYIQQDTKGDYQKALLYLCGGDDYPYDVPDYA
B5: binds.

B6: AnxA2 Δ25-36-HA (other)
chain: MSTVHEILCKLSLEGDHSTPPSAYRDALNIETAIKTKGVDEVTIVNILTNRSNAQRQDIAFAYQRRTKKELASALKSALSGHLETVILGLLKTPAQYDASELKASMKGLGTDEDSLIEIICSRTNQELQEINRVYKEMYKTDLEKDIISDTSGDFRKLMVALAKGRRAEDGSVIDYELIDQDARDLYDAGVKRKGTDVPKWISIMTERSVPHLQKVFDRYKSYSPYDMLESIRKEVKGDLENAFLNLVQCIQNKPLYFADRLYDSMKGKGTRDKVLIRIMVSRSEVDMLKIRSEFKRKYGKSLYYYIQQDTKGDYQKALLYLCGGDDYPYDVPDYA
B6: no binding.

B7: AnxA2 Δ37-48-HA (other)
chain: MSTVHEILCKLSLEGDHSTPPSAYGSVKAYTNFDAEKGVDEVTIVNILTNRSNAQRQDIAFAYQRRTKKELASALKSALSGHLETVILGLLKTPAQYDASELKASMKGLGTDEDSLIEIICSRTNQELQEINRVYKEMYKTDLEKDIISDTSGDFRKLMVALAKGRRAEDGSVIDYELIDQDARDLYDAGVKRKGTDVPKWISIMTERSVPHLQKVFDRYKSYSPYDMLESIRKEVKGDLENAFLNLVQCIQNKPLYFADRLYDSMKGKGTRDKVLIRIMVSRSEVDMLKIRSEFKRKYGKSLYYYIQQDTKGDYQKALLYLCGGDDYPYDVPDYA
B7: no binding.

B8: AnxA2 Δ37-66-HA (other)
chain: MSTVHEILCKLSLEGDHSTPPSAYGSVKAYTNFDAEQRQDIAFAYQRRTKKELASALKSALSGHLETVILGLLKTPAQYDASELKASMKGLGTDEDSLIEIICSRTNQELQEINRVYKEMYKTDLEKDIISDTSGDFRKLMVALAKGRRAEDGSVIDYELIDQDARDLYDAGVKRKGTDVPKWISIMTERSVPHLQKVFDRYKSYSPYDMLESIRKEVKGDLENAFLNLVQCIQNKPLYFADRLYDSMKGKGTRDKVLIRIMVSRSEVDMLKIRSEFKRKYGKSLYYYIQQDTKGDYQKALLYLCGGDDYPYDVPDYA
B8: no binding.

B9: AnxA2 Δ49-61-HA (other)
chain: MSTVHEILCKLSLEGDHSTPPSAYGSVKAYTNFDAERDALNIETAIKTNRSNAQRQDIAFAYQRRTKKELASALKSALSGHLETVILGLLKTPAQYDASELKASMKGLGTDEDSLIEIICSRTNQELQEINRVYKEMYKTDLEKDIISDTSGDFRKLMVALAKGRRAEDGSVIDYELIDQDARDLYDAGVKRKGTDVPKWISIMTERSVPHLQKVFDRYKSYSPYDMLESIRKEVKGDLENAFLNLVQCIQNKPLYFADRLYDSMKGKGTRDKVLIRIMVSRSEVDMLKIRSEFKRKYGKSLYYYIQQDTKGDYQKALLYLCGGDDYPYDVPDYA
B9: no binding.

B10: AnxA2 Δ62-75-HA (other)
chain: MSTVHEILCKLSLEGDHSTPPSAYGSVKAYTNFDAERDALNIETAIKTKGVDEVTIVNILTQRRTKKELASALKSALSGHLETVILGLLKTPAQYDASELKASMKGLGTDEDSLIEIICSRTNQELQEINRVYKEMYKTDLEKDIISDTSGDFRKLMVALAKGRRAEDGSVIDYELIDQDARDLYDAGVKRKGTDVPKWISIMTERSVPHLQKVFDRYKSYSPYDMLESIRKEVKGDLENAFLNLVQCIQNKPLYFADRLYDSMKGKGTRDKVLIRIMVSRSEVDMLKIRSEFKRKYGKSLYYYIQQDTKGDYQKALLYLCGGDDYPYDVPDYA
B10: no binding.

B11: AnxA2 Δ74-88-HA (other)
chain: MSTVHEILCKLSLEGDHSTPPSAYGSVKAYTNFDAERDALNIETAIKTKGVDEVTIVNILTNRSNAQRQDIAFSALSGHLETVILGLLKTPAQYDASELKASMKGLGTDEDSLIEIICSRTNQELQEINRVYKEMYKTDLEKDIISDTSGDFRKLMVALAKGRRAEDGSVIDYELIDQDARDLYDAGVKRKGTDVPKWISIMTERSVPHLQKVFDRYKSYSPYDMLESIRKEVKGDLENAFLNLVQCIQNKPLYFADRLYDSMKGKGTRDKVLIRIMVSRSEVDMLKIRSEFKRKYGKSLYYYIQQDTKGDYQKALLYLCGGDDYPYDVPDYA
B11: no binding.

B12: AnxA2 Δ82-88-HA (other)
chain: MSTVHEILCKLSLEGDHSTPPSAYGSVKAYTNFDAERDALNIETAIKTKGVDEVTIVNILTNRSNAQRQDIAFAYQRRTKKSALSGHLETVILGLLKTPAQYDASELKASMKGLGTDEDSLIEIICSRTNQELQEINRVYKEMYKTDLEKDIISDTSGDFRKLMVALAKGRRAEDGSVIDYELIDQDARDLYDAGVKRKGTDVPKWISIMTERSVPHLQKVFDRYKSYSPYDMLESIRKEVKGDLENAFLNLVQCIQNKPLYFADRLYDSMKGKGTRDKVLIRIMVSRSEVDMLKIRSEFKRKYGKSLYYYIQQDTKGDYQKALLYLCGGDDYPYDVPDYA
B12: no binding.

B13: AnxA2 Δ89-101-HA (other)
chain: MSTVHEILCKLSLEGDHSTPPSAYGSVKAYTNFDAERDALNIETAIKTKGVDEVTIVNILTNRSNAQRQDIAFAYQRRTKKELASALKLLKTPAQYDASELKASMKGLGTDEDSLIEIICSRTNQELQEINRVYKEMYKTDLEKDIISDTSGDFRKLMVALAKGRRAEDGSVIDYELIDQDARDLYDAGVKRKGTDVPKWISIMTERSVPHLQKVFDRYKSYSPYDMLESIRKEVKGDLENAFLNLVQCIQNKPLYFADRLYDSMKGKGTRDKVLIRIMVSRSEVDMLKIRSEFKRKYGKSLYYYIQQDTKGDYQKALLYLCGGDDYPYDVPDYA
B13: no binding.

B14: AnxA2 Δ102-108-HA (other)
chain: MSTVHEILCKLSLEGDHSTPPSAYGSVKAYTNFDAERDALNIETAIKTKGVDEVTIVNILTNRSNAQRQDIAFAYQRRTKKELASALKSALSGHLETVILGYDASELKASMKGLGTDEDSLIEIICSRTNQELQEINRVYKEMYKTDLEKDIISDTSGDFRKLMVALAKGRRAEDGSVIDYELIDQDARDLYDAGVKRKGTDVPKWISIMTERSVPHLQKVFDRYKSYSPYDMLESIRKEVKGDLENAFLNLVQCIQNKPLYFADRLYDSMKGKGTRDKVLIRIMVSRSEVDMLKIRSEFKRKYGKSLYYYIQQDTKGDYQKALLYLCGGDDYPYDVPDYA
B14: no binding.

B15: AnxA2 ΔR1-HA (deletion of aa 37-108) (other)
chain: MSTVHEILCKLSLEGDHSTPPSAYGSVKAYTNFDAEYDASELKASMKGLGTDEDSLIEIICSRTNQELQEINRVYKEMYKTDLEKDIISDTSGDFRKLMVALAKGRRAEDGSVIDYELIDQDARDLYDAGVKRKGTDVPKWISIMTERSVPHLQKVFDRYKSYSPYDMLESIRKEVKGDLENAFLNLVQCIQNKPLYFADRLYDSMKGKGTRDKVLIRIMVSRSEVDMLKIRSEFKRKYGKSLYYYIQQDTKGDYQKALLYLCGGDDYPYDVPDYA
notes: also called Δ37-108 (R1)
B15: no binding.

B16: AnxA2 ΔR2-HA (deletion of aa 109-192) (other)
chain: MSTVHEILCKLSLEGDHSTPPSAYGSVKAYTNFDAERDALNIETAIKTKGVDEVTIVNILTNRSNAQRQDIAFAYQRRTKKELASALKSALSGHLETVILGLLKTPAQQDARDLYDAGVKRKGTDVPKWISIMTERSVPHLQKVFDRYKSYSPYDMLESIRKEVKGDLENAFLNLVQCIQNKPLYFADRLYDSMKGKGTRDKVLIRIMVSRSEVDMLKIRSEFKRKYGKSLYYYIQQDTKGDYQKALLYLCGGDDYPYDVPDYA
notes: also called Δ109-192 (R2)
B16: binds.
